experiment: yeast display, Sf9 membrane polyspecificity reagent, FACS + sequencing; frameworks hold sequencing errors
Procedure, shortened: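 Using colony PCR, genes from sorted yeast display clones were amplified, then sequenced on MiSeq at 2 × 250 and filtered by CDR length. The clones had been stained with 10% biotinylated, detergent-solubilized Sf9 membrane reagent for 1 hour at 4 °C and sorted by FACS into low and high (top ~1%) gates on anti-HA and streptavidin fluorescence. Polyreactivity labels come from the gate of origin.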

| Sequence | polyreactivity (PSR sort gate) |
| --- | --- |
| QVQLVESGGGLVQAGGSLRLTCAASGRIFSANAMGWYRKAPGKERELVATISTGGGRTYYADSVKGRFTISRDYAKNTVYLQMNSLKAEDTAVYYCNDTGNYARFLYYSWCQGTQVTVSS | high polyreactivity |
| QVQHVESGGVLVQAGGSLRLSCAASGSIFVIYAMGWYRQAPGQEWELVAAINRGSTNYADSVKGRFTISRDNAKNTVYLQMNSLKPEDTAVYYCAAYGRYGFGRVERYDYWGLGTQVTVSS | high polyreactivity |
| QVQLVESGGGLVQAGGSLRLSCAASGYTFYWNVMGWYRQAPGKERELVAVIDWSGGSTHYADSVKGRFTISRDNAKNTVYLQMNSLKPEDTAVYYCAAESVYTWYYQDDDDYWGQGTQVTVSS | low polyreactivity |
| QVQLVESGGGLVQAGGSLRLSCAASGRTFTFYAMGWYRQAPGKERELVAAISTRGGRTYYADSVKGRFTISRDNAKNTVYFQMNSLKPDDTAVYYCASRARRRYYYWGQGTQVTVSS | high polyreactivity |
| QVQLVESGGGLVQAGGSLRLSCAASGRIIRGNAMGWYRQAPGKERELVAAISVRGGNTRYADSVKGRFTISRDNAKNSVYLQMNSLKPEDTAVYFCKKRSYLPEMEYWGQGSQVTVSS | low polyreactivity |
| QVHLVESGGGLVQAGGSLRLSFAASGRIFDLYTMGWYRQAPGKERELVAAIRWSDGSTYYADSVKGRFTISRDNAKNTVYLQMNSLKPEDTAVYYCAADTRTSYYNDDYDYWGQGTQVTVSS | low polyreactivity |
| QVQLEESGGGLVQAGGSLRLSCSASGSIFRGYAMGWYRQAPGKERELVAAITSGGRTNYADSVKGRFTISRDNAKITVYLQMNSLKPEVTAVYYWIAGFRFYAYSRIAGEDYWGQGSQVTVSS | low polyreactivity |
| QVQLVESGGGLVQAGGSLRLSCAASGSTLPYNAMGWYRQAPGKERELVAAISKSGGRTYYADSVKGRFTISRDNAKNTVYLQMNSLKPEDTAVYYCNAGPYRGGGGSSRYYWGQGTQVTVSS | high polyreactivity |
| QVQLVESGGGLVQAGGSLRLSCAASGSTFAVYAMGWYRQPPGKERELVAAITWSGGSTYYADSVKGRFTISRDNAKNTVYLQMNSLKPEDTAVYYCAAVVVRFIYVYFEFEWGQGTQVTVSS | low polyreactivity |
| QVQLVESGGGLVQAGGSLRLSCAATGFIFPKYAMGWYSKAPGKERELVAAISKSGGRTYYADSVKGRFTISRDNAKNTVYLQMNSLKPEDTAVYYCAAEFTYEGDSWGQGTQVTVSS | high polyreactivity |
| QDQLVESGGGLVQAGGSLRLSCAASGSISSTNAMGWYRQAPGKERELVATISWIGGSTYADSVKGRFTISRDNAKNTVYLQMNSLKPEDTAVYYCNRDWIFTKDYDYWGQGTQVTVSS | low polyreactivity |
| QVQLVESGVGLVQAGGSLRLSCAASGSTFRGYAMGWYRQAPGKERELVAAISGIGGSTYYADSVKGRFTISRDNAKNTVYLQMNSLKPEDTAVYYCNAVSGDSGDYWGQGTQVTVSS | low polyreactivity |
| QVQLVESGGGLVQAGGSLRLICAASGSIFRPNAMGWYRQAPGKERELVAAITWSGDSTYYADSVKGRFTISRDNAKNTVYLQMNSLKPEDTAVYYCAADFTYQGSSANDYWGQGTQVTVSS | low polyreactivity |
| QDQLVESGGGLVQAGGSLRLSCAASGSIFTFNTMGWYRQAPVKERELVATISSGGRTYYADSVKGRFTISRDNAKNTVYLQMNSLKPEDTSVYYCNKGYYGYTYVEYNYWGQGTQVTVSS | low polyreactivity |
| QVQLVESGGGLVQAGGSLRLSCAASGFTFWDNAMGWYRQAPGKERELVAAISRRGGTTYYADSVKGRFTISRDNAKNTVYLQMNRLKPEATAVYYCNARRRSVPYRYDFWGQGTQVTVSS | high polyreactivity |
| QVHLVESGGGLVQAGGSLRLRCAASGGTSRSYAKGWYRPAPGKERELVAAISWRGGRTYYADSVKGRFTISRDNAKNTVYFQMNRLKPEDTAVYDCAARLPGYYGIGDYWGLGTQVTVSS | high polyreactivity |
| QVQLVESGGGLVQAGGSLRLSCAASGSTFYYYALGWYRQAPGKERELVATISWSGDSTYADSVKGRFTISRDNAKNTVYLQMNSLKPEDTAVYYCATSGDWWGFRYDYWGQGTQVTVSS | low polyreactivity |
| QVQLVESGGGLVQAGGSLRFTCAASGRIFLGYAMGWYRQAAGKEREFVAAINSVASTNYADSVKGRFTISRDNAKNTVYLQMNSLKPEDTAVYYCAAVYFLVQSDLPAYDYWGQGTQVTVSS | low polyreactivity |
| QVQLVDSGGGLVQAGGSLRLSCAASGSPFTTYAMGWYRQAPGTERELVAAISTNGGRTFYSDSVKGRFTISRDNAKNSVYLQMNSLKPEDTALYYCAAEYDLYAPGYYYWGEGTQVTVSS | low polyreactivity |
| QVQLVESGGGLVQAGGSLRLSCAASGFIFWRYTMGWYRQAPGKERELVAVISWRGDNTYADSVEGRFTISRDNAKNTVYLQMNSLKPEDTAVYYCGVYRYDYWGQGTQVTVSS | low polyreactivity |
| QVQLVESGGGLVQAGGSLRLSCAASGGIFWAYAMGWYRQAPGKERELVAAITTLGTSTYYADSVKGRFTISRDNAKNTVYLQMNSLKPEDTGVYYCAAVDPYSYSFDYWGQGTQVTVSS | high polyreactivity |
| QVQLVESGGGLVQAGGSLRLSCAASGRIFVHYAMGWYRQAPGKERELVAAITSGSSTNYADSVKGRFTISRDNAKNTVYLQMNSLKPEDTAVYYCAADYSVHMVRDRWFDYWGQGTQVTVSS | low polyreactivity |
| QVQLVESGGGLVQAGGSLRLSCAASGSIFVRYAMGWYRQAPGKERELVAGITNSGGSTYYADSVKGRFTISRDNEKNTVYLQMNSLKPEDTAVYYCAADAGGWWYKYYYWGQGTQVTVSS | high polyreactivity |
| QVQLVESGGGLVQAGGSLRLSCAASVSIFGYNTMGRYRQAPGKERELVARIRASGGSTYYADSVKGRFTISRDNAKNTVYLQMNSLKPEDTAVYYCAKYLRGSWVRQFGSTYDYWGQGTQVTVSS | high polyreactivity |
| QVQLVESGGGLVQAGGSLRLSCAASGYIFYDYAMGWYRQAPGKERELVAAIRRSTGTTYYADSVKGRFTISRDNAKNTVYLQMNSLKPEDTAFYYCAALFRPRVHRYDYWGQGTQVTVSS | low polyreactivity |
| PVQIVESGGVLDQAGGSLRLSCAASGSIFTRNTMGWYRQAPRKERELVAAISQRGGSTYYADSVKGRFTISRDNAKNTVYLQMNSLIPEDTAVYFCAADFSFGYYWYGYWGQGTQVTVSS | high polyreactivity |
| QVQLVESGGGVVQARGSRRLSCAASGRSYANAMGWYRQAPGKERELVAAITKNGGGTYYADSVKGRFTISRDNAKNTVYLQMNSLKPEDTAVYYCAASYSRWYYTAKQQEFDYWGQGTQVTVSS | high polyreactivity |
| QVQLVESGGGLVQAGGSLRLSCAASGSIFRYYAMGWYRQAPGKERELVAAIRVSTGSTSYADSVKGRFTISRDNAKKSVYLQMNSLIPAVTAVYYCNARSRLVIAYRQHNYWGQGTQVTVSS | high polyreactivity |
| QVQIVESGGGLVQAGGSLRLSCAASGRIFGFNAMAWYRQAPGKERELVAAISWSSGRTYYADSVKGRFTISRDNAKNTVYLQMNSLKPEDTAVYYCAADQWGGGDDYWGQGTQVTVSS | high polyreactivity |
| QVQLVESGGGLVQAGGTLRLSCAASGRTFNAYPMGWYRQAPGKERELVAAITSSGTSTYYADSVKGRFTISRDNAKNTVYLQMNSLKPEDTAVYYCAAPWGYWGQCTQVTVSS | low polyreactivity |

— the nanobody polyreactivity screen of Harvey et al. (2022)
